The source of these data is publication PMC7255693 (2020).

The target in assay [1] is HDM4 peptide (TAMRA-HDM4 25-43) 25-43 (Homo sapiens), O15151.
In assay [2] the target is T1, CapZ peptide (TAMRA-TRTK) 265-276 (Homo sapiens, UniProt P52907, not fully specified).
T1 chain: {TAMRA}-TRTKIDWNKILS-NH2
The assay is described as follows: fluorescence polarization titration.

B1: S100A1, P23297 (protein)
chain: MGSELETAMETLINVFHAHSGKEGDKYKLSKKELKELLQTELSGFLDAQKDVDAVDKVMKELDENGDGEVDFQEYVVLVAALTVACNNFFWENS
B1 displayed a Kd in assay [1] of 3670 nM.

B2: S100B (protein)
chain: SELEKAMVALIDVFHQYSGREGDKHKLKKSELKELINNELSHFLEEIKEQEVVDKVMETLDNDGDGECDFQEFMAFVAMVTTACHEFFEHE
Regarding B2, the Kd in assay [2] stood at 130 nM.

What is called Kd is the equilibrium constant for the complex coming apart.
